Data from patent publication US7563583B2, “Heregulin variants” (Genentech, Inc., priority 1997, dated 2009).
Changes are numbered by the printed parent chain.

B1: V199: HRG-β1 variant with V199 mutated to alanine (protein)
chain: SHLVKCAEKEKTFCVNGGECFMAKDLSNPSRYLCKCPNEFTGDRCQNYVMASFYKHLGIEFMEAEELY
modifications: left off: large carriers; small tags and cut ends
notes: HRG-β1 variant with V199 mutated to alanine
B2: E215: HRG-β1 variant with E215 mutated to alanine (protein)
chain: B1 chain with A23V, E39A
modifications: left off: large carriers; small tags and cut ends
notes: HRG-β1 variant with E215 mutated to alanine
B3: K200: HRG-β1 variant with K200 mutated to alanine (protein)
chain: B1 chain with A23V, K24A
modifications: left off: large carriers; small tags and cut ends
notes: HRG-β1 variant with K200 mutated to alanine
B4: S177: HRG-β1 variant with S177 mutated to alanine (protein)
chain: B1 chain with S1A, A23V
modifications: left off: large carriers
notes: HRG-β1 variant with S177 mutated to alanine
B5: P205: HRG-β1 variant with P205 mutated to alanine (protein)
chain: B1 chain with A23V, P29A
modifications: left off: large carriers; small tags and cut ends
notes: HRG-β1 variant with P205 mutated to alanine
B6: F229: HRG-β1 variant with F229 mutated to alanine (protein)
chain: B1 chain with A23V, F53A
modifications: left off: large carriers; small tags and cut ends
notes: HRG-β1 variant with F229 mutated to alanine
B7: V191: HRG-β1 variant with V191 mutated to alanine (protein, UniProt Q02297 1-640, looked up, variant V191A)
chain: MSERKEGRGKGKGKKKERGSGKKPESAAGSQSPALPPRLKEMKSQESAAGSKLVLRCETSSEYSSLRFKWFKNGNELNRKNKPQNIKIQKKPGKSELRINKASLADSGEYMCKVISKLGNDSASANITIVESNEIITGMPASTEGAYVSSESPIRISVSTEGANTSSSTSTSTTGTSHLVKCAEKEKTFCANGGECFMVKDLSNPSRYLCKCQPGFTGARCTENVPMKVQNQEKAEELYQKRVLTITGICIALLVVGIMCVVAYCKTKKQRKKLHDRLRQSLRSERNNMMNIANGPHHPNPPPENVQLVNQYVSKNVISSEHIVEREAETSFSTSHYTSTAHHSTTVTQTPSHSWSNGHTESILSESHSVIVMSSVENSRHSSPTGGPRGRLNGTGGPRECNSFLRHARETPDSYRDSPHSERYVSAMTTPARMSPVDFHTPSSPKSPPSEMSPPVSSMTVSMPSMAVSPFMEEERPLLLVTPPRLREKKFDHHPQQFSSFHHNPAHDSNSLPASPLRIVEDEEYETTQEYEPAQEPVKKLANSRRAKRTKPNGHIANRLEVDSNTSSQSSNSESETEDERVGEDTPFLGIQNPLAASLEATPAFRLADSRTNPAGRFSTQEEIQARLSSVIANQDPIAV
B8: L209: HRG-β1 variant with L209 mutated to alanine (protein, UniProt Q02297 1-640, looked up, variant L209A)
chain: B7 chain with A191V, L209A
B9: N204: HRG-β1 variant with N204 mutated to alanine (protein, UniProt Q02297 1-640, looked up, variant N204A)
chain: B7 chain with A191V, N204A
B10: E184: HRG-β1 variant with E184 mutated to alanine (protein, UniProt Q02297 1-640, looked up, variant E184A)
chain: B7 chain with E184A, A191V
B11: D201: HRG-β1 variant with D201 mutated to alanine (protein, UniProt Q02297 1-640, looked up, variant D201A)
chain: B7 chain with A191V, D201A

Test system: ErbB-3 or ErbB-4 receptors
Test: Alanine scan of the HRG-β1 EGF-like domain by phage ELISA (FIG. 2)
Assay type: binding
Conditions: ratio of variant EC50 to wild-type EC50
Description: The X axis lists each amino acid that was changed to alanine and its position. […] The EC50 was calculated as the concentration of soluble receptor fusion required to displace 50% of the total amount of phage bound to immobilized receptor fusion. ErbB-3 binding results are shown with black bars, and ErbB-4 binding results are shown with white bars.
Alanine-substituted variants were generated by site-directed mutagenesis according to Kunkel et al., Methods Enzymol. 154:367-82 (1987) (hereinafter “Kunkel mutagenesis”), using uracil-containing single-stranded DNA template prepared from pHRG2-g3. pHRG2-g3, which is described in Example 1, expressed HRG-β1 177-244 fused to pIII 247. A series of oligonucleotides was used to generate a series of constructs that expressed a series of variants in which consecutive residues were mutated to alanine. Phage stocks were prepared from these constructs as described in Example 1, except that PEG(8000) was used to precipitate the phage. The affinities of the alanine-substituted variants for ErbB-3-Ig and ErbB-4-Ig was determined by phage ELISA as described in Example 1.

Molecule	effect of substitution with alanine on affinity for the ErbB-3 or ErbB-4 receptors
B1	two
B2	two
B3	two
B4	two and five
B5	two
B6	two and five
B7	two and five
B8	two and five
B9	two
B10	two
B11	two
